Reference: patent US20240207433A1

Target: human alpha-enolase protein (ENO-1) (human) (UniProt P06733)
Assay: cell-based or functional assay

Chain of UniProt P06733 (P06733 2-434): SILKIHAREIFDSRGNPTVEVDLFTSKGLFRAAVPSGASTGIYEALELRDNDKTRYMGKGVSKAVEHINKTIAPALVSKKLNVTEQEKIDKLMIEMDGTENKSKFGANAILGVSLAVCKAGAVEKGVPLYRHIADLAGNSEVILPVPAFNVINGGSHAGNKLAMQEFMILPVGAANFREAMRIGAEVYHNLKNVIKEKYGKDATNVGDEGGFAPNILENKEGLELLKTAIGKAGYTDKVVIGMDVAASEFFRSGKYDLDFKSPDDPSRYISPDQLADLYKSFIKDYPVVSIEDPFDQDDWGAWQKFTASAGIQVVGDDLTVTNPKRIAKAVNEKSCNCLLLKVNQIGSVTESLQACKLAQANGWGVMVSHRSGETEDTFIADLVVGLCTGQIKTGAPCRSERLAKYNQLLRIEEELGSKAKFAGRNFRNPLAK

HuL001-SMCC-DM1
IC50 of cytotoxicity (CCK-8), A549, IL-6: 11.2 nM | IC50 of cytotoxicity (CCK-8), A549, MCP-1: 12.1 nM | IC50 of cytotoxicity (CCK-8), A549, TGF-β: 8.2 nM | IC50 of cytotoxicity (CCK-8), A549, untreated: 56 nM | IC50 of cytotoxicity (CCK-8), DB, IL-6: 5.8 nM | IC50 of cytotoxicity (CCK-8), DB, MCP-1: 4.1 nM | IC50 of cytotoxicity (CCK-8), DB, TGF-β: 5.1 nM | IC50 of cytotoxicity (CCK-8), DB, untreated: 5.5 nM | IC50 of cytotoxicity (CCK-8), GA-10, IL-6: 26.6 nM | IC50 of cytotoxicity (CCK-8), GA-10, MCP-1: 25.6 nM | IC50 of cytotoxicity (CCK-8), GA-10, TGF-β: 22.8 nM | IC50 of cytotoxicity (CCK-8), GA-10, untreated: 37.8 nM | IC50 of cytotoxicity (CCK-8), HT, IL-6: 6.6 nM | IC50 of cytotoxicity (CCK-8), HT, MCP-1: 7.6 nM | IC50 of cytotoxicity (CCK-8), HT, TGF-β: 6.1 nM | IC50 of cytotoxicity (CCK-8), HT, untreated: 7.3 nM | IC50 of cytotoxicity (CCK-8), MCF-7, IL-6: 38.6 nM | IC50 of cytotoxicity (CCK-8), MCF-7, MCP-1: 36.2 nM | IC50 of cytotoxicity (CCK-8), MCF-7, TGF-β: 53.5 nM | IC50 of cytotoxicity (CCK-8), MCF-7, untreated: 74.9 nM | IC50 of cytotoxicity (CCK-8), MDA-MB-175, IL-6: 45.1 nM | IC50 of cytotoxicity (CCK-8), MDA-MB-175, MCP-1: 40.5 nM | IC50 of cytotoxicity (CCK-8), MDA-MB-175, TGF-β: 38.3 nM | IC50 of cytotoxicity (CCK-8), MDA-MB-175, untreated: 76.4 nM | IC50 of cytotoxicity (CCK-8), MDA-MB-231, IL-6: 34.6 nM | IC50 of cytotoxicity (CCK-8), MDA-MB-231, MCP-1: 22.4 nM | IC50 of cytotoxicity (CCK-8), MDA-MB-231, TGF-β: 24.2 nM | IC50 of cytotoxicity (CCK-8), MDA-MB-231, untreated: 69 nM | IC50 of cytotoxicity (CCK-8), MDA-MB-453, IL-6: 22.8 nM | IC50 of cytotoxicity (CCK-8), MDA-MB-453, MCP-1: 24.7 nM | IC50 of cytotoxicity (CCK-8), MDA-MB-453, TGF-β: 16.6 nM | IC50 of cytotoxicity (CCK-8), MDA-MB-453, untreated: 39.8 nM | IC50 of cytotoxicity (CCK-8), PANC-1, IL-6: 134 nM | IC50 of cytotoxicity (CCK-8), PANC-1, MCP-1: 110 nM | IC50 of cytotoxicity (CCK-8), PANC-1, TGF-β: 116 nM | IC50 of cytotoxicity (CCK-8), PANC-1, untreated: 174 nM | IC50 of cytotoxicity (CCK-8), Raji, IL-6: 17.1 nM | IC50 of cytotoxicity (CCK-8), Raji, MCP-1: 21.7 nM | IC50 of cytotoxicity (CCK-8), Raji, TGF-β: 18.6 nM | IC50 of cytotoxicity (CCK-8), Raji, untreated: 32.2 nM | IC50 of cytotoxicity (CCK-8), SU-DHL-4, IL-6: 8.3 nM | IC50 of cytotoxicity (CCK-8), SU-DHL-4, MCP-1: 7.6 nM | IC50 of cytotoxicity (CCK-8), SU-DHL-4, TGF-β: 7.4 nM | IC50 of cytotoxicity (CCK-8), SU-DHL-4, untreated: 7.65 nM | IC50 of cytotoxicity (CCK-8), Toledo, IL-6: 11.4 nM | IC50 of cytotoxicity (CCK-8), Toledo, MCP-1: 8.1 nM | IC50 of cytotoxicity (CCK-8), Toledo, TGF-β: 9.8 nM | IC50 of cytotoxicity (CCK-8), Toledo, untreated: 8 nM | IC50 of cytotoxicity (CCK-8), U937, IL-6: 7.1 nM | IC50 of cytotoxicity (CCK-8), U937, MCP-1: 9.7 nM | IC50 of cytotoxicity (CCK-8), U937, TGF-β: 7.5 nM | IC50 of cytotoxicity (CCK-8), U937, untreated: 75 nM
